From the DeepSol protein solubility set come the findings set out here.

A short description of this data set: soluble on expression in E. coli; label from the status in PepcDB or PDB records.
“MGSDKIHHHHHHMWIGFDYGSANCAVGIMHEGKISQIPLSANSQYLPSTLYALDRELIAQAVYQGISQDKKSEYAKLRSSQLSRAIQVRHELDLSMDEQTVFVGQAAIDAYLEMPEEGFYVRSPKSFLGANGLREEQVALFEDIVTLMMLHVKGITDNYLADNGLPAATHAVIGRPVNFQSIGGEKSNQQAEAILSLAAKRAGFTQVAFLFEPVAAGMDFEASLEQDSTVLVVDVGGGTTDCSVVRMGPSFAANKQREQDCLGHSGQRVGGNDLDIALAMKGFMPSLGLDSLLKSGKPMPSAPFWQAVAVNDVSAQRDFASLNARKLLDTLVKDAKEPELVKRLKKVQQDQLGYKLVRQAEGAKVTLSDAMQTECDLGFIASDLSVELTQAQFSHFIIEPLAKIEALIQAAVAKADVNPDLVYVTGGTARSPAIYAKIASVYPEAKIVVGDHFGSVTAGLTRWTQKVF”: the “soluble on expression in E. coli” value was “not soluble”.

Consider “AHHHHHHGSYKILEKKEIAMRNTWYKVYAPHVAKKVQPGQFVIVRAFPNGERIPLTPVMWDREEGWIVLIVFTRGKTTMRMAVELKEGDSLLNVAGPLGTPVPMEKFGKILAIGAYTGIVEVYPIAKAWQEIGNDVTTLHVTFEPMVILKEELEKAVTRHIVEPVPLNPNQDFLANMKNVSQRLKEKVRELLESEDWDLVFMVGPVGDQKQVFEVVKEYGVPMKVDLHPIMVDGTGMCGACRVTVGGEVKFACVDGPEFDAYQVDWDELIHRVGFYAKLEKLALEKYMEELKAKGVIMPRLIKERVPTPERSVGERVRDFGEVNLGYSWELALREAERCLQCPVEYAPCIKGCPVHINIPGFIKALRENRDNPSKAVREALRIIWRDNTLPAITGRVCPQEEQCEGACVVGKVGDPINIGKLERFVADYAREHGIDDELLLEEIKGIKRNGKKVAIIGAGPAGLTCAADLAKMGYEVTIYEALHQPGGVLTYGIPEFRLPKEILRKELKKLSLLGVEIKTDHIVGKTITIQELLQEYDAVFIGTGAGTPKLPNIPGINLNGIYSANEFLTRINLMKAYKFPEYDTPIVVGKKVVVIGAGNTAMDAARSALRLGAEVTIAYRRGREDMTARIEEVKHAEEEGVKFMFFVNPVEFIGDENGNVKAVKFEKMKPLEERDSRGKRKIVGTGEYITVEADTVIIAIGQTPNKVLWRATPELKVDEWGRIVVDENLMTSIPGVFAGGDAIRGEATVILAMGDGRKAAKAIHQYLSKKGN”, for which the “soluble on expression in E. coli” value was “soluble”.

Take “GSDKIHHHHHHMLTMKDIIRDGHPTLRQKAAELELPLTKEEKETLIAMREFLVNSQDEEIAKRYGLRSGVGLAAPQINISKRMIAVLIPDDGSGKSYDYMLVNPKIVSHSVQEAYLPTGEGCLSVDDNVAGLVHRHNRITIKAKDIEGNDIQLRLKGYPAIVFQHEIDHLNGVMFYDHIDKNHPLQPHTDAVEV”: the “soluble on expression in E. coli” value is “soluble”.

For “MASFKVKPEHTGPPDLYYNETEAAKYASNSHITAIQHEMAERALELLALPEGKSGFLLDIGCGTGMSSEVILDAGHMFVGVDVSRPMLEIARQDEDLESGDFIHQDMGLGMPFRPGSFDGAISISAIQWLCHANASDENPRKRLLFFFQSLYGCLGRGSRAVFQFYPENDEQCDLIMGQAHKAGFNGGLVVDFPEAAKRKKVYLVLMTGGVVQLPQALTEDGEESRTQIDNAGRRFVWNSRKNEKVAKGSKAWIEAKRQRQIKQGRDVRHESKYSGRKRKTKF”, the “soluble on expression in E. coli” value is reported as “not soluble”.

Take “MAHHHHHHMTTLTHSRPRPLHLPLSPPHTRKNDGAAPAPAHTHPSHFLSVAITVTHTDFVTGTIMKSFFSNITSKLKTRRKPLAPCDCSDFIEAAPAQPSLTHLRGVVAARHFHGAPPPASDVENARRDFVVRSTVFDLQHRCGAGGRCTCAGAPACRFPQCFTMRPVTKGAEVLAERQVYEVEDAPTPEIRALVALAAEEKLEEVVKGIQHTVDAHLKAAARGRGLEARFIIDGSDGHEFTPATPKTGTGSIHAGANPLREDEDLREEITSLYLWRAALLVNLRRDEQAVSSLLNLAFAVEQKDRTRLYGAAAAWAVLNDMEIIYYRSLVKSCKPFDQAVHFATERPLLLARVFEATRGDDYHTDYCTHVVFSKEVTATVTRAQTAQMHGDFTEDPMRSLCLPLTMPYYRFRVDEEFWKRFYALLCMPPVPPPTQEEAKAQAIDPAAELGLTPNYILDAVGRSMMLHHLVTFADVRDKEIDTGVVVDRVKEMKLLDLQPHPSDYTPVLTTSEMHVAVTRMKELLVVVRSFEAKEQERLSGAAAAQRLQRAQSGNDAANPSAAPPAPSPIEK”: the “soluble on expression in E. coli” value is “not soluble”.

Take “MSLRTIPLLCFNDVYRVNQKYNPQPGAPEDNSPDRTITVSQFAELLLSERSKWADRQSEDQDDQEGPSKEGLVLFAGDVFNPSVESSVTRGSHMVPIMNALKVDYACVGNHDFDFGFPHLTKLVESTSFPWLLSNIVDTNTGRQPEPLKRFIVTERCGVKIGLIGLVEKDWIATIPSWPHNFRYRSMKDTALELSRELRDPNGEHQVDIIIALTHCRVPNDIRLAIELGAVADKPGVENEHGIDLIVGGHDHIYYIGKGATSWEGYAGRKDVPGTTEDHGVRLIKSGTDFRDLTSANLTVTPTPLGSIRRQLITSLTGKHLYVLPSSPSSPPFEELVKSLLSSVSEALTKPVCFTLTPFDARSEVVRTQESGLGNWIADVLMHAYAESIVQAKGKEGGLGEEFEGDADAAILCGGTLRGDSQYGPGKISLGDILEILPFEDPVVCIELDGKGIWNALESALSKWPAQEGRFPIVSGLAVKWDHTRPPGQRILSIHQIAQPKKDDDDWEDPADMVDFKEQEDGTTVVVKQKKLQLGEEVKNEEGGRMYKVITRDYMAQGYDGFEALKNRNFIVDDENGQIMSSILRSFLLGSSYIFRHKQLEEAAHSHLSRRTSEGHHHHHH”: the “soluble on expression in E. coli” value is “soluble”.

Consider “MPHLFYGTAQNGEVIFDEREAHHMRVVRLKEGDVIEATDGNGFSYTCILKSLKKKTAAAKIVKVEEKEKEPTEKLSVVVPIGRWERTRFLIEKCVELGVDEIFFHKFERSQHEISLDKAKIVVREAAKQCKRYLFPKVSFLEKLEFSGNVITLDLDASQNLLDANLEGSITVVVGPEGGFSEKERELLRSSTTIVSLGKKILRFETAAILTVGYIALKKQKI”, for which the “soluble on expression in E. coli” value was “not soluble”.

Take “MLETNVDQKSFKFKIVLLGEGCVGKSSLVLRFVENKFSCKHLSTIQASFQNKTVNVEDCQADLHIWDTAGQEKYHALGPIYYRGSNGVLLVFDITDRKSFEKVKNWVLEIKTCLGNTAEILIVGNKIDLEEERQVTRQDAEAYAESEGALYMETSAQDNVGISDAFESLTAKMIEHSRTRSTEPPSTNRSIRLIDNDEAERSKKCCR”: the “soluble on expression in E. coli” value was “not soluble”.

Turning to “MVQEANVRDKMRGTGVSVTRSGDNIILNMPNNVTFDSSSATLKPAGANTLTGVAMVLKEYPKTAVNVIGYTDSTGGHDLNMRLSQQRADSVASALITQGVDASRIRTQGLGPANPIASNSTAEGKAQNRRVEITLSPLLEHHHHHH”, the “soluble on expression in E. coli” value was “not soluble”.

Take “MRKLTALFVASTLALGAANLAHAADTTTAAPADAKPMMHHKGKFGPHQDMMFKDLNLTDAQKQQIHEIMKGQRDQMKRPPLEERRAMHDIIASDTFDKAKAEAQIAKMEEQRKANMLAHMETQNKIYNILTPEQKKQFNANFEKRLTERPAAKGKMPATAELEHHHHHH”: the “soluble on expression in E. coli” value is reported as “soluble”.

For the sequence “MTTTGLRPRLNVRQRKDTGYLPHSSPFSLQFRPAILYSDGYLPQVPEDKNETDKIHTPRIVPQKLERTPSDTSRSRGCHCFYAGWL”, the “soluble on expression in E. coli” value is reported as “not soluble”.

For the sequence “MGSDKIHHHHHHMKYVLIQATDNGILRRAECGGAVTALFKYLLDKKLVDGVLALKRGEDVYDGIPTFITNSNELVETAGSLHCAPTNFGKLIAKYLADKKIAVPAKPCDAMAIRELAKLNQINLDNVYMIGLNCGGTISPITAMKMIELFYEVNPLDVVKEEIDKGKFIIELKNGEHKAVKIEELEEKGFGRRKNCQRCEIMIPRMADLACGNWGAEKGWTFVEICSERGRKLVEDAEKDGYIKIKQPSEKAIQVREKIESIMIKLAKKFQKKHLEEEYPSLEKWKKYWNRCIKCYGCRDNCPLCFCVECSLEKDYIEEKGKIPPNPLIFQGIRLSHISQSCINCGQCEDACPMDIPLAYIFHRMQLKIRDTLGYIPGVDNSLPPLFNIER”, the “soluble on expression in E. coli” value is reported as “not soluble”.

Take “MGSDKIHHHHHHRSPQGQFTEDDNPNALVNGKIYNVYTMMRSFDITAGTPAIAIHYLRSEDSEKGSIPSDGSDVAEMYDDFLYTPTNGLLGSYWGKNYAIIYQCNDILDAIAEKETAGQTETEDIINKGEASFFRAYCYFNLVRAFGEVPLVTYKINDASEANIPKTTADKIYEQIDTDLKTAEESLPETWSTEYTGRLTWGAARSLHARTYMMRSDWDNMYKASTDVINKGLYNLKTPYNEIFTDDGENSGGSIFELQCTATAALPQSDVIGSQFCEVQGVRGAGQWDLGWGWHMATQLMADAYETGDPRKNATLLYFRKTDDEPITPENTNEPYGESPISPAMGAYFNKKAYTDPALRKEYTNKGFWVNIRLIRYSDVVLMAAEAANEKNIPGEAVDYLEMVRARARGTNTNILPKITTNDQGELREAIRHERRVELGLEPDRFYDLVRWGIASEVLHAAGKVNYQDKNALLPLPQSEIDKSKGVLVQNPDY”: the “soluble on expression in E. coli” value is recorded as “not soluble”.

Turning to “MGSDKIHHHHHHMSRPRIHPLQALFGAHEHRPDLPVCDHYAGVEPRMRKALALQADMADTALFDVTLDLEDGAPVGGEPEHARLAAELVSSAANRHGRVGVRVHPYPHPSFADDVRSLLAGAGERLAYLMIPKAQGVEELRDAIAAIEATRREQGLARAVPVHALVETHGALRDVQAIAALPAIESLSFGLMDFVSAHHGAIPAFGMSLAGQFSHPLVLRAKLEISAACHAAGKLPSHCVVTEYSDTQAIAQAATRASRELGYARMWSIHPNQIRPIVEAFAPVPAEIEAALDILLAAQAADWAPIAHRGLLQDRASYRYHWHVLERAARTGRSLPDTARSAFFATAAA”, the “soluble on expression in E. coli” value is “not soluble”.

As to “MCLVNEFVSNSNMKPALNVSGDEKELILQLRRYLEEKLTYLLDQNGTVSIGVSGGSMPRVFSKAILSLPQEQLNWKRIRIFMVDERNVDLDSEESNQGEYLRLFPNELRDVFVPMQIFKDPCLTAQHYEISLRKYLLPEQLNNTARFDILFLGVGPDGHTASIFPGKERLEKITELNWVSVITDSPKPPPSRITLTLQTLQHAKNVAFIICGKQKAEIVRGICDRDQKYPAAQARPFNDKLTLFLDEDAATGVPDRDSSDSDSPPPFDG”, the “soluble on expression in E. coli” value is on record as “not soluble”.

On to “MGANTKYKDSVFSLLFSDPDLLRELYCALEGVSLPADIPVTINTLRDALFMGMINDISFEIGGKLIILIEHQSTINPNMALRLLMYIARVYEKLIGDRNIYSSRLIHIPRPEFYVLYNGVTPYPDRTTLKLSDMFEKAGAFGLPEKGSAALELEVNVININEGKNEVIAKKCKTLAGYSAFVAKVRAFEKEIGDKTEAMKQAVRYCRDHDILKEFLEQNGTEVMNMLINEWNIEDAKKVWYEDGLSQGLEKGLEKGREEGREEESFSIAQNLVKLGLPIETIISATQLDPDKVKALYQQ”, for which the “soluble on expression in E. coli” value is given as “soluble”.

Turning to “CIAGHSRGGLIALIAAALKGKWAIAVSAPSDRRKQKEYLSKFPPGTVQYNIYQDLMKMPEYELEYSSLSYADRLKKVLLIHGEDDEMVLKEHSITLCDTIKRMGGDCELHIIPKMKHTPLGQQYQTIWSIIEDWIKRNS”, the “soluble on expression in E. coli” value is recorded as “not soluble”.

“MSLARVFNACLFFYKIGGKMAMGEFDLIKRYFQQQILVDDSVQLSIGDDCALVSVPENYQLAITTDTMVENTHFLPTISPEDLAYKAVATNLSDLAAMGAQPKWVSLALTLPNVDENWISTFSQSLLHTLKQYNVTLIGGDTTKGNLSITITAQGFVEKNKGICRHKAQIGDLIYVSSTLGDSAAGLTQILLGKSAVDSDDVFLQQRHLRPTPRIELGQALIGIAHVAIDLSDGLISDLGHILERSQCSAEVELTALPLSSSILNKYDRTQAEQFALSGGEDYELCFTIPPEYKDELELRLKKLNVPCTCIGKINEKCGDFSPRFLRDGKPVNITFSSGFDHFKESKEGHHHHHH”: the “soluble on expression in E. coli” value was “soluble”.
